US20240376163

System: T1, biotin-p-CABIN1-L-1 (phosphorylated CABIN1-L-1)
T1 sequence: AAAMAGFPPEITVTPPTP
Experiment: SPR (Biacore T200), biotin-labeled peptide captured on SA chip, His-tagged CNA at 1.25, 2.5, 5 and 10 nM, 25° C.

“His-tagged CNA (purified; isoform not stated)” was tested, and the fold increase of binding affinity (phosphorylated vs unphosphorylated CABIN1 peptide) was 3 fold.
